Source: CN111303278A

B1: CB017.5L (antibody, V domains shown)
VH: QVQLVESGGGVVQPGRSLRLSCSASGFTFSVYAMHWVRQAPGQGLEWVAIIWYDGSNKYYADSVKGRFTISRDNSKETLYLQMNSLRVEDTAVYYCARDPIVGHTRDGLDVWGQGTTVTVSS
VL: SYELTQPPSVSVSPGQTARVTCSGDAMAEQYTYWYQQKPGQAPVLIIFKDTERPSGIPERFSGSSSGTTVTLTISGVQTEDEADYYCQSTDSSGTSWVFGGGTKLTVL
B2: CR9505 (antibody, from another filing, V domains shown)
VH: EVQLQQSGPELVKPGTSVKISCKASGYSFTGFTMNWVKQSHGKNLEWFGLINPFNGNTGYNQKFKGKATLTVDKSSSTAFMELLSLTSEDSAVYYCARSGKSYDYEAWFTYWGQGTLVTVSA
VL: DIVMTQTTLSLPVSLGNQASISCRSSQTIVHTNGNTYLEWYLQKPGQSPKLLIYKVSNRFSGVPDRFSGSGSGTDFILNISRVEAEDLGVYYCFQGSHVPFTFGSGTKLEIKR
B3: CB030.1 (antibody, V domains shown)
VH: QVQLVQSGAEMKRPGSSVKVSCKASGGTFSTFAINWVRQAPGQGFEWMGGVIPGFDSANYAQKFQGRLTMSADESTSTVYMELSSLRSDDTAVYYCAGNSGYCSGDSCAPNWGPGTLVTVSS
VL: DIVMTQSPLSLPVTPGEPASISCRSSQSLVHSNGYSYLDWYLQKPGQSPQLLIYLGSNRPSGVPDRFSGSGSGTDFTLKISRVEAEDVGVYFCMQNLQTPTFGGGTKVEIK

What was measured:
[1] = target: 长RSV G肽 (表15); test: ELISA, biotinylated peptide on avidin plate, mAb titrated
[2] = target: RSV G中央保守域(CCD)生物素结合的肽 SYM-1706 (RSV); test: as above
[3] = target: RSV株A/长(ATCC目录号VR-26)的G蛋白 (RSV A/长) (UniProt P20895); test: cell-based or functional assay

Binder	IC50 [1] [µg/mL]	IC50 [2] [µg/mL]	IC50 (空斑减少分析, 50%中和空斑形成) [3] [µg/mL]
B1	0.02	0.02	–
B2	–	–	0.018
B3	0.02	0.02	–
